Reference: publication PMC10715591, “EspB and HtpG interact with the type III-A CRISPR/Cas system of Mycobacterium tuberculosis” (Frontiers in Molecular Biosciences, 2023)

Target: T1, ESX-1 secretion-associated protein EspB (Mycobacterium tuberculosis H37Rv, UniProt P9WJD9 1-460)
T1 construct: also called Esx-1 secreted protein B
Experiment: SPR; Biacore 8K, 25°C; EspB covalently immobilised on a CM5 chip; analytes injected at 25-3,200 nM, 30 uL/min for 2 min; global fit to a 1:1 mass transport model
Settings: both partners purified

T1 sequence (P9WJD9 whole entry): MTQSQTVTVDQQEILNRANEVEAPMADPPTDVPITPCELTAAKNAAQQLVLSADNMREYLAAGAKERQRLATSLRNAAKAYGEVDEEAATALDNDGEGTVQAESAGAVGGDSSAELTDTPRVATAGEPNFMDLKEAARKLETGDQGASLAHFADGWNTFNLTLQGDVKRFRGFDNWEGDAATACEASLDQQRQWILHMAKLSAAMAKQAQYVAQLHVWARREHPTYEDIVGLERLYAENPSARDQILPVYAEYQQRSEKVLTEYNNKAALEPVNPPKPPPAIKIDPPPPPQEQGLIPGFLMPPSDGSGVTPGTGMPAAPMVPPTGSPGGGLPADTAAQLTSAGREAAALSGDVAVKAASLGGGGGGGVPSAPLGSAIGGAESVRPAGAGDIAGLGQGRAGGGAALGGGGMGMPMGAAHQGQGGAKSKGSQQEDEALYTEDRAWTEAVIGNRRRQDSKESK

Row | Binder | Kd [nM] | koff [s⁻¹] | kon [M⁻¹ s⁻¹]
1 | MtbCsm6 (natural protein) MILFSPIGTADPITALGDGPMLHIVRHYRPIVVVLFLSAEIAAFENADRRYSAAITRLAPETDVRIVTYTNPSVHRFDLFVPVFRNHLVELSAEFPDRTILLNTSSGTPAMQAALVAINVFGIPRTTAVQVSTPARALSKPGDRESPDAYDLELMWDANDDNQPGAPNRCFEATSAALGALLERANLKQLIVSYDYSAAVTIAADSRLPDQVSNLIRGAMHRSRLEHLVAPKFFKDTAFTYDPANKVAEYISALALLAKREQWAEFARSATPAITIVLRAAVAKHLPEDRYLDDMGRVDRRKLEREPEIRCALKHPPKSPNAEWYLYTKDWLALLRQFAPDRVGALEVLGRFESRVRNTAAHEIVSISEDRITKDGGLLPEQLLKILARETGADLTLYDRLNDEIIRQIDMAPLG | 0.0316 | 5.83e-07 | 18400
2 | MtbCsm2 (natural protein) MSVIQDDYVKQAEVIRGLPKKKNGFELTTTQLRVLLSLTAQLFDEAQQSANPTLPRQLKEKVQYLRVRFVYQSGREDAVKTFVRNAKLLEALEGIGDSRDGLLRFCRYMEALAAYKKYLDPKDK | 0.125 | 8.3e-07 | 6660
3 | MtbCsm3 (natural protein) MTTSYAKIEITGTLTVLTGLQIGAGDGFSAIGAVDKPVVRDPLSRLPMIPGTSLKGKVRTLLSRQYGADTETFYRKPNEDHAHIRRLFGDTEEYMTGRLVFRDTKLTNKDDLEARGAKTLTEVKFENAINRVTAKANLRQMERVIPGSEFAFSLVYEVSFGTPGEEQKASLPSSDEIIEDFNAIARGLKLLELDYLGGSGTRGYGQVKFSNLKARAAVGALDGSLLEKLNHELAAV | 1.9 | 0.000462 | 243000
